Experimental data published in patent US20250228958A1, “TSP1 INHIBITOR” (Daiichi Sankyo Company, Limited, priority 2022, published 2025).
Positions of bridges follow the written chain, without caps; N, C: chain ends. Non-standard residues stand in square brackets, D forms with d. No end group written: not given here. 2Nal = N[C@@H](Cc1ccc2ccccc2c1)C(=O)O; Gly(cPent) = N[C@H](C(=O)O)C1CCCC1; 4Pal = N[C@@H](Cc1ccncc1)C(=O)O; Agb = N=C(N)NCC[C@H](N)C(=O)O; Pen = CC(C)(S)[C@H](N)C(=O)O; Phg = N[C@H](C(=O)O)c1ccccc1; Tle = CC(C)(C)[C@H](N)C(=O)O; hCys = N[C@@H](CCS)C(=O)O

B1: Peptide-115 (peptide)
peptide: [2Nal]RSG[Agb]NWVRW[Gly(cPent)]C
modifications: bridge N-12; not fully specified (N-terminus, C-terminus, bridges); also: C-terminus amide-bonded to a linker (not defined)
B2: Peptide-125 (peptide)
peptide: [2Nal]R[hCys]GRDW[hCys]RW[Gly(cPent)]C-NH2
modifications: linker 3-8 via acetone bridge (-S-CH2-CO-CH2-S-); bridge N-12; not fully specified (N-terminus, bridges)

The binders below were run against Thrombospondin human platelet (Calbiochem, 605225) (human, UniProt P07996 19-1170) (assay: cell-based or functional assay).
Sequence of Thrombospondin human platelet (Calbiochem, 605225) (P07996 19-1170 limits assumed): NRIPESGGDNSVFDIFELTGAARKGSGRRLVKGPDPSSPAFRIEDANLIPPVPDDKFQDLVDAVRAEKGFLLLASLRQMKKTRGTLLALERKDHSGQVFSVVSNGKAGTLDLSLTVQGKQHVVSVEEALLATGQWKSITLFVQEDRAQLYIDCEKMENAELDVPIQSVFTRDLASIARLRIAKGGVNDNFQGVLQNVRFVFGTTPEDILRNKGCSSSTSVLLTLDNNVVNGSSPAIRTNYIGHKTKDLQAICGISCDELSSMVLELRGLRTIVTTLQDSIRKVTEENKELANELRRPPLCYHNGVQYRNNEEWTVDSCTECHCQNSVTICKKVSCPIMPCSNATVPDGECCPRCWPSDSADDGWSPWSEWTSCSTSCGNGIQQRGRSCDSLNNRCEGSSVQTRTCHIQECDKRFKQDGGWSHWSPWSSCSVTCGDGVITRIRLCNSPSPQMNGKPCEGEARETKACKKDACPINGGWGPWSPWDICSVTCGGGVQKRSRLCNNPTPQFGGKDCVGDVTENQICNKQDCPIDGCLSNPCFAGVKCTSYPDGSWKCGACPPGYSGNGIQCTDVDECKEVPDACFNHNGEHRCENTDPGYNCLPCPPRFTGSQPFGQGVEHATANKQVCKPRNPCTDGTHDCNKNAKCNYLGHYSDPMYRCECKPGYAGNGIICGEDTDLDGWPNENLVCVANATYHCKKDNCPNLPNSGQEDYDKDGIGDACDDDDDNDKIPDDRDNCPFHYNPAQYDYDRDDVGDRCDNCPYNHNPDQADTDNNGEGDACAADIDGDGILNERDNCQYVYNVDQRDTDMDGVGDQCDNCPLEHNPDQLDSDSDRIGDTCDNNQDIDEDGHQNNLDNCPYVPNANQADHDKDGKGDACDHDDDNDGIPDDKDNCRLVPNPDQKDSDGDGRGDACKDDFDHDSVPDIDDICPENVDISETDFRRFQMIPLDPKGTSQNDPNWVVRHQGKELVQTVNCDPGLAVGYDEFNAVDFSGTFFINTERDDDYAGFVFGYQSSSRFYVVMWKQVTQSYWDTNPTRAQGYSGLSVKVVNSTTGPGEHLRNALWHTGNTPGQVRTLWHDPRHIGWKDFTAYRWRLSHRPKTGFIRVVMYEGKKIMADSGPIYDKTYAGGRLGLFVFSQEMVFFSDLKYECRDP

[2Nal]R[Pen]GRDW[hCys]RW[Gly(cPent)]C-NH2 (bridge 3-8, N-12; not fully specified (N-terminus, bridges)) [Peptide-133] and [2Nal]RCGRDW[Pen]RW[Gly(cPent)]C-NH2 (disulfide 3-8; bridge N-12; not fully specified (N-terminus, bridges)) [Peptide-138] are within 1.5-fold of each other in “IC50 for inhibition of cell adhesion (HUVEC to coated human TSP1)” value (“IC50 for inhibition of cell adhesion” for short): 125 nM for the first, 92.5 nM for the second.

First: [2Nal]RCGRDW[hCys]RW[Gly(cPent)]C-NH2 (disulfide 3-8; bridge N-12; not fully specified (N-terminus, bridges)) [Peptide-126]
Second: [2Nal]R[hCys]GRDW[Pen]RW[Gly(cPent)]C-NH2 (bridge 3-8, N-12; not fully specified (N-terminus, bridges)) [Peptide-136]
The “IC50 for inhibition of cell adhesion” value of the first is 15-fold lower: 10.8 nM for the first, 162 nM for the second.

First: [2Nal]RCGRDWCRW[Gly(cPent)]C-NH2 (disulfide 3-8; bridge N-12; not fully specified (N-terminus, bridges)) [Peptide-128]
Second: [2Nal]R[hCys]G[Agb]NW[hCys]RW[Gly(cPent)]C-NH2 (disulfide 3-8; bridge N-12; not fully specified (N-terminus, bridges)) [Peptide-1]
The “IC50 for inhibition of cell adhesion” value of the first is 1.5-fold lower: 8.4 nM for the first, 12.6 nM for the second.

[2Nal]R[hCys]GRDW[hCys]RW[Gly(cPent)]C-NH2 (bridge 3-8, N-12; not fully specified (N-terminus, bridges)) [Peptide-127] and [2Nal][Tle][hCys]GRNW[hCys]RW[Gly(cPent)]C-NH2 (disulfide 3-8; bridge N-12; not fully specified (N-terminus, bridges)) [Peptide-8] are within 1.5-fold of each other in “IC50 for inhibition of cell adhesion” value: 11.6 nM for the first, 12.6 nM for the second.

First: [2Nal]R[hCys]GRDW[Pen]RW[Gly(cPent)]C-NH2 (disulfide 3-8; bridge N-12; not fully specified (N-terminus, bridges)) [Peptide-134]
Second: [2Nal][Agb][hCys]G[Agb]NW[hCys]RW[Gly(cPent)]C-NH2 (disulfide 3-8; bridge N-12; not fully specified (N-terminus, bridges)) [Peptide-2]
The “IC50 for inhibition of cell adhesion” value of the first is 5.1-fold higher: 102 nM for the first, 20 nM for the second.

Compared with [2Nal]R[hCys]GRDW[hCys]RW[Gly(cPent)]C-NH2 (disulfide 3-8; bridge N-12; not fully specified (N-terminus, bridges)) [Peptide-11], [2Nal]RCGRDWCRW[Gly(cPent)]C-NH2 (bridge 3-8, N-12; not fully specified (N-terminus, bridges)) [Peptide-130] is 3.4-fold lower in “IC50 for inhibition of cell adhesion” value: 26 nM for the first, 7.7 nM for the second.

[2Nal][Phg][hCys]G[Agb]NW[hCys]RW[Gly(cPent)]C-NH2 (disulfide 3-8; bridge N-12; not fully specified (N-terminus, bridges)) [Peptide-3] and [2Nal]R[hCys]G[Agb]NW[hCys][4Pal]W[Gly(cPent)]C-NH2 (disulfide 3-8; bridge N-12; not fully specified (N-terminus, bridges)) [Peptide-5] are within 1.5-fold of each other in “IC50 for inhibition of cell adhesion” value: 29.9 nM for the first, 23.6 nM for the second.

Compared with [2Nal]R[hCys]GRDWCRW[Gly(cPent)]C-NH2 (disulfide 3-8; bridge N-12; not fully specified (N-terminus, bridges)) [Peptide-129], [2Nal]R[Pen]GRDW[hCys]RW[Gly(cPent)]C-NH2 (disulfide 3-8; bridge N-12; not fully specified (N-terminus, bridges)) [Peptide-135] is 4.8-fold higher in “IC50 for inhibition of cell adhesion” value: 43.7 nM for the first, 208 nM for the second.

First: [2Nal]R[hCys]GRNW[hCys]RWVC-NH2 (disulfide 3-8; bridge N-12; not fully specified (N-terminus, bridges)) [Peptide-12]
Second: [2Nal]R[hCys]G[Agb]NW[hCys][Phg]W[Gly(cPent)]C-NH2 (disulfide 3-8; bridge N-12; not fully specified (N-terminus, bridges)) [Peptide-4]
The “IC50 for inhibition of cell adhesion” value of the first is 1.8-fold lower: 18.6 nM for the first, 33.8 nM for the second.

First: [2Nal]R[hCys]GRDWCRW[Gly(cPent)]C-NH2 (bridge 3-8, N-12; not fully specified (N-terminus, bridges)) [Peptide-132]
Second: B1
The “IC50 for inhibition of cell adhesion” value of the first is 2.5-fold lower: 7 nM for the first, 17.5 nM for the second.

First: B2
Second: [2Nal]R[Pen]GRDWCRW[Gly(cPent)]C-NH2 (bridge 3-8, N-12; not fully specified (N-terminus, bridges)) [Peptide-137]
The “IC50 for inhibition of cell adhesion” value of the first is 3.8-fold higher: 305 nM for the first, 80.6 nM for the second.

Going from [2Nal]RCGRDW[Pen]RW[Gly(cPent)]C-NH2 (bridge 3-8, N-12; not fully specified (N-terminus, bridges)) [Peptide-139] to [2Nal]RCGRDW[hCys]RW[Gly(cPent)]C-NH2 (bridge 3-8, N-12; not fully specified (N-terminus, bridges)) [Peptide-131], the “IC50 for inhibition of cell adhesion” value falls from 30.9 nM to 14.2 nM (2.2-fold).

[2Nal]R[hCys]G[Agb]DW[hCys]RW[Gly(cPent)]C-NH2 (disulfide 3-8; bridge N-12; not fully specified (N-terminus, bridges)) [Peptide-9] and [2Nal]R[hCys]GRNW[hCys]VW[Gly(cPent)]C-NH2 (disulfide 3-8; bridge N-12; not fully specified (N-terminus, bridges)) [Peptide-7] are within 1.5-fold of each other in “IC50 for inhibition of cell adhesion” value: 22.4 nM for the first, 31.1 nM for the second.
